{"source": "patent US7531500B2", "about": "“Preventing airway mucus production by administration of EGF-R antagonists” (The Regents of the University of California, priority 1998, dated 2009)", "key": {"NCI-H292 cells": {"system": "NCI-H292 cells", "test": "Immunoassay of MUC5AC protein in NCI-H292 cells (Example 2)", "format": "cell-based, human", "method": "Cell Culture. NCI-H292 cells, a human pulmonary mucoepidermoid carcinoma cell line, were grown in RPMI 1640 medium containing 10% fetal bovine serum, penicillin (100 U/ml), streptomycin (100 μg/ml) and Hepes (25 mM) at 37° C. in a humidified 5% CO2, water-jacketed incubator. Either 6-well culture plates or 8-chamber slides were used to culture the cells. […] The cells were then washed and incubated with fresh medium alone. Experiments were terminated at preselected times (for mRNA, 6 h and 12 h; for protein, 24 h). As controls, cells were incubated with medium alone for same time periods. […] In inhibition studies with blocking antibodies to EGF-R ligands, the supernatants were pretreated with anti-TGFα antibody (Calbiochem) or anti-EGF antibody for 30 min and then added to NCI-H292 cells. The role of oxygen free radicals was examined using scavengers of oxygen free radical DMSO (1%, Sigma), 1,3-dimethyl-2-thiourea (DMTU, 50 mM, Sigma), or superoxide dismutase (SOD, 300 U/ml, Sigma).\nPreparation of Cigarette Smoke Solution. Research cigarettes (code2R1, produced for the University of Kentucky Tobacco and Health Research Foundation) were used in the study. Cigarette smoke solution was prepared as previously described (Dusser et al. (1989) J. Clin. Invest. 84:900-906). In brief, cigarette smoke was withdrawn into a polypropylene syringe (35 ml) at a rate of one puff/min (10 times) and bubbled slowly into 20 ml of RPM11640 containing 50 mM Hepes buffer. The smoke solution was then titrated to pH 7,4 and used immediately after preparation.\nImmunoassay of MUC5AC Protein. MUC5AC protein was measured as described above. In brief, cell lysates were prepared with PBS at multiple dilutions, and 50 μl of each sample was incubated with bicarbonate-carbonate buffer (50 μl) at 40° C. in a 96-well plate (Maxisorp Nunc, Fisher Scientific, Santa Clara, Calif.), until dry. Plates were washed three times with PBS and blocked with 2% BSA (fraction V, Sigma) for 1 h at room temperature. Plates were again washed three times with PBS and then incubated with 50 μl of mouse monoclonal MUC5AC antibody (1:100) that was diluted with PBS containing 0.05% Tween 20. After 1 h, the wells were washed three times with PBS, and 100 μl horseradish peroxidase-goat anti-mouse IgG conjugate (1:10,000, Sigma) was dispensed into each well. After 1 h, plates were washed three times with PBS. Color reaction was developed with TMB peroxidase solution (Kirkegaard & Perry Laboratories, Gaithersburg, Md.) and stopped with 2N H2SO4. Absorbance was read at 450 nm."}, "sensitized rats": {"system": "sensitized rats", "test": "Goblet cell production in ovalbumin-sensitized rats (asthma model)", "format": "in vivo, rat", "conditions": "for Goblet cells in tracheal epithelium: counted over 2 mm basal lamina, 5 rats", "method": "Sensitization. Rats were sensitized on days 0 and 10 with intraperitoneal injections of ovalbumin (10 mg, grade V; Sigma, St. Louis, Mo.), complexed with 100 mg of aluminum hydroxide in 0.5 ml of sterile saline, Rats then rested for 10 days. On day 20, ovalbumin was delivered directly into the trachea; animals were challenged with 100 μl of 0.1% ovalbumin in saline by intratracheal instillation three times (days 20, 22 and 24). Rats were euthanized either without challenge (day 20), or 48 h after the third challenge (day 26). This procedure induced goblet cell metaplasia. To block the goblet cell hyperplasia, sensitized rats were pretreated with an EGF-R tyrosine kinase inhibitor, BIBX1522. On days of ovalbumin challenge (days 20, 22 and 24), sensitized rats were pretreated with BIBX1 522 (10 mg/kg, i.p., 1 h before the challenge) and then BIBX1522 was also instilled into the trachea together with ovalbumin (BIBX1522, 10^−5M, 100 μl). BIBX1522 was also injected i.p. every 24 h until the day before the rats were euthanized. After the animals were euthanized, the trachea was removed 48 h after the third challenge.\nTissue preparation. At preselected times during anesthesia, the systemic circulation was perfused with 1% paraformaldehyde in DEPC-treated PBS at a pressure of 120 mmHg. The trachea was then removed and placed in 4% paraformaldehyde for 24 h. After fixation, trachea and lungs were embedded in either JB-4 plus monomer solution A for cell analysis or O.C.T. compound (Sakura Finetek U.S.A., Inc., Torrance, Calif.) for immunohistochemistry and in situ hybridization. The embedded tissues were cut as cross sections ([…] thick) and placed on slides.\nCell analysis. We counted the total number of epithelial cells by counting epithelial cell nuclei over 2 mm of the basal lamina with an oil immersion objective lens (×1000 magnification). The linear length of the basal lamina under each analyzed region of epithelium was determined by tracing the contour of the digitized image of the basal lamina. After instillation of stimuli, “developing” goblet cells form. These cells have Alcian blue/PAS-positive granules, but the size of granules is small, and the number of cytoplasmic granules is few. We call these “developing” goblet cells “pre-goblet cells”, a stage before cells become mature goblet cells. Goblet cells are tall, cuboidal, goblet to low columnar in shape, with abundant Alcian blue/PAS-stained granules filling most of the cytoplasm between the nucleus and the luminal surface. Pre-goblet cells are defined as cells with smaller mucus-stained areas (<1/3 height in epithelium from basement membrane to luminal surface) or with sparsely and lightly Alcian blue/PAS-stained, small granules. Ciliated cells are recognized by their ciliated borders, lightly stained cytoplasm, and large round nuclei. Non-granulated secretory cells are columnar in shape and extend from the lumen to the basal lamina. The cytoplasm stains light pink color, and a few tiny PAS-positive and Alcian blue-negative granules are observed in the cytoplasm. Basal cells are small flattened cells with a large nucleus, located just above the basal lamina but not reaching the airway lumen.\nQuantification of goblet cell production. Goblet cell production, was determined by the volume density of Alcian blue/PAS-stained mucosubstances on the mucosal surface epithelium using a semi-automatic imaging system described elsewhere (Weber et al. (1984) Science 224:294-297). We measured the Alcian blue/PAS-positive stained area and the total epithelial area and expressed the data as the percentage of the total area stained by Alcian blue-PAS. The analysis was performed with the public domain NIH Image program (developed at the U.S. National Institute of Health and available from the Internet by anonymous FTP from zippy.nimh.gov or on floppy disk from the National Technical Information Service, Springfield, Va., part number PB95-500195GEI)."}}}
{"molecule": "IL-8: recombinant human IL-8 (Genzyme)", "values": [{"measurement": "MUC5AC synthesis, stimulus alone without neutrophils", "setting": "NCI-H292 cells; 1 h incubation, protein at 24 h, IL-8 10^-8 M, fMLP 10^-8 M, TNFα 20 ng/ml", "result": "no effect"}]}
{"molecule": "CNC(=S)NC", "note": "[DMTU, 1,3-dimethyl-2-thiourea]", "values": [{"measurement": "MUC5AC synthesis by supernatant of activated neutrophils, cigarette smoke and H2O2", "setting": "NCI-H292 cells; DMSO 1%, DMTU 50 mM, SOD 300 U/ml", "result": "significantly inhibited"}]}
{"molecule": "Ova: ovalbumin, grade V (Sigma), used to sensitize and challenge rats (protein, UniProt P01012 2-386, looked up) Ovalbumin: GSIGAASMEFCFDVFKELKVHHANENIFYCPIAIMSALAMVYLGAKDSTRTQINKVVRFDKLPGFGDSIEAQCGTSVNVHSSLRDILNQITKPNDVYSFSLASRLYAEERYPILPEYLQCVKELYRGGLEPINFQTAADQARELINSWVESQTNGIIRNVLQPSSVDSQTAMVLVNAIVFKGLWEKAFKDEDTQAMPFRVTEQESKPVQMMYQIGLFRVASMASEKMKILELPFASGTMSMLVLLPDEVSGLEQLESIINFEKLTEWTSSNVMEERKIKVYLPRMKMEEKYNLTSVLMAMGITDVFSSSANLSGISSAESLKISQAVHAAHAEINEAGREVVGSAEAGVDAASVSEEFRADHPFLFCIKHIATNAVLFFGRCVSP", "values": [{"measurement": "% of AB/PAS-stained area", "setting": "sensitized rats; Ova i.p. + i.t.", "result": "38.7 ± 6.2", "unit": "%"}, {"measurement": "Basal cells in tracheal epithelium", "setting": "sensitized rats; Ova i.p. + i.t.", "result": "59.8 ± 2.9"}, {"measurement": "Ciliated cells in tracheal epithelium", "setting": "sensitized rats; Ova i.p. + i.t.", "result": "52.4 ± 7.1"}, {"measurement": "Indeterminate cells in tracheal epithelium", "setting": "sensitized rats; Ova i.p. + i.t.", "result": "2.6 ± 0.5"}, {"measurement": "Pre-goblet cells in tracheal epithelium", "setting": "sensitized rats; Ova i.p. + i.t.", "result": "36.0 ± 6.3"}, {"measurement": "Secretory cells in tracheal epithelium", "setting": "sensitized rats; Ova i.p. + i.t.", "result": "49.8 ± 4.2"}, {"measurement": "Total cells in tracheal epithelium", "setting": "sensitized rats; Ova i.p. + i.t.", "result": "238.8 ± 4.4"}, {"measurement": "% of AB/PAS-stained area", "setting": "sensitized rats; Ova i.p. only", "result": "7.8 ± 2.9", "unit": "%"}, {"measurement": "Basal cells in tracheal epithelium", "setting": "sensitized rats; Ova i.p. only", "result": "60.2 ± 3.4"}, {"measurement": "Ciliated cells in tracheal epithelium", "setting": "sensitized rats; Ova i.p. only", "result": "56.4 ± 3.8"}, {"measurement": "Indeterminate cells in tracheal epithelium", "setting": "sensitized rats; Ova i.p. only", "result": "1.4 ± 0.2"}, {"measurement": "Pre-goblet cells in tracheal epithelium", "setting": "sensitized rats; Ova i.p. only", "result": "13.8 ± 1.4"}, {"measurement": "Secretory cells in tracheal epithelium", "setting": "sensitized rats; Ova i.p. only", "result": "67.6 ± 7.0"}, {"measurement": "Total cells in tracheal epithelium", "setting": "sensitized rats; Ova i.p. only", "result": "204.8 ± 6.6"}, {"measurement": "Goblet cells in tracheal epithelium", "setting": "sensitized rats; Ova sensitization i.p. + i.t.", "result": "38.2 ± 6.3"}, {"measurement": "Goblet cells in tracheal epithelium", "setting": "sensitized rats; Ova sensitization i.p. only", "result": "5.4 ± 1.5"}]}
